# Patent US20240209114A1 (JIANGSU HENGRUI PHARMACEUTICALS, published 2024)
# Read-outs that look alike come from different tables or passages of the source.
# B1: 29C1 (H1L1) (antibody, human IgG4 S228P, kappa, V domains shown)
# VH: EVQLVESGGGLVKPGGSLRLSCAASGFTFSRFALSWVRQAPGKGLEWVSAVSRGGDYTYYPDSMKGRFTISRDNAKNSLYLQMNSLRAEDTAVYYCARHLYGYGHYYAMDYWGQGTTVTVSS
# VL: DIQMTQSPSSLSASVGDRVTITCKASQDVNTAVAWYQQKPGKAPKLLIYSASYRYTGVPSRFSGSGSGTDFTFTISSLQPEDIATYYCQQHYSTPYTFGGGTKVEIKR
# notes: Humanized 29C1, full-length human IgG4 (S228P); also called 29C1 (HIL1)
# B2: 29C1 (H2L1) (antibody, V domains shown)
# VH: EVQLVESGGGLVKPGGSLRLSCAASGFTFSRFALSWVRQAPGKGLEWVAAVSRGGDYTYYPDSMKGRFTISRDNAKNSLYLQMNSLRAEDTAVYYCARHLYGYGHYYAMDYWGQGTTVTVSS
# VL: DIQMTQSPSSLSASVGDRVTITCKASQDVNTAVAWYQQKPGKAPKLLIYSASYRYTGVPSRFSGSGSGTDFTFTISSLQPEDIATYYCQQHYSTPYTFGGGTKVEIK
# B3: 29C1 (H3L1) (antibody, V domains shown)
# VH: EVQLVESGGGLVKPGGSLRLSCAASGFTFSRFALSWVRQAPGKGLEWVAAVSRGGDYTYYPDSMKGRFTISRDNAKNSLYLQMNSLRAEDTAVYYCARHLYGYGHYYAMDYWGQGTTVTVSS
# VL: DIQMTQSPSSLSASVGDRVTITCKASQDVNTAVAWYQQKPGKAPKLLIYSASYRYTGVPSRFSGSGSGTDFTFTISSLQPEDIATYYCQQHYSTPYTFGGGTKVEIK
# B4: 29C1 (H1L2) (antibody, V domains shown)
# VH: EVQLVESGGGLVKPGGSLRLSCAASGFTFSRFALSWVRQAPGKGLEWVSAVSRGGDYTYYPDSMKGRFTISRDNAKNSLYLQMNSLRAEDTAVYYCARHLYGYGHYYAMDYWGQGTTVTVSS
# VL: DIVMTQSPSSLSASVGDRVTITCKASQDVNTAVAWYQQKPGKSPKLLIYSASYRYTGVPSRFSGSGSGTDFTFTISSLQPEDIATYYCQQHYSTPYTFGGGTKVEIK
# B5: 29C1 (H2L2) (antibody, V domains shown)
# VH: EVQLVESGGGLVKPGGSLRLSCAASGFTFSRFALSWVRQAPGKGLEWVAAVSRGGDYTYYPDSMKGRFTISRDNAKNSLYLQMNSLRAEDTAVYYCARHLYGYGHYYAMDYWGQGTTVTVSS
# VL: DIVMTQSPSSLSASVGDRVTITCKASQDVNTAVAWYQQKPGKSPKLLIYSASYRYTGVPSRFSGSGSGTDFTFTISSLQPEDIATYYCQQHYSTPYTFGGGTKVEIK
# B6: 29C1 (H3L2) (antibody, V domains shown)
# VH: EVQLVESGGGLVKPGGSLRLSCAASGFTFSRFALSWVRQAPGKGLEWVAAVSRGGDYTYYPDSMKGRFTISRDNAKNSLYLQMNSLRAEDTAVYYCARHLYGYGHYYAMDYWGQGTTVTVSS
# VL: DIVMTQSPSSLSASVGDRVTITCKASQDVNTAVAWYQQKPGKSPKLLIYSASYRYTGVPSRFSGSGSGTDFTFTISSLQPEDIATYYCQQHYSTPYTFGGGTKVEIK
# B7: 77H11 (H3L1) (antibody, human IgG4 S228P, kappa, V domains shown)
# VH: EVQLQESGPGLVKPSQTLSLTCTVSGYSITSDYAWNWIRQPPGKGLEWIGYISYSGRTSYNPSLKSRVTISRDTSKNQFSLKLSSVTAADTAVYYCAVLYALDYWGQGTTVTVSS
# VL: DIQMTQSPSSLSASVGDRVTITCKASQNVDTNVAWYQQKPGKVPKALIYSASYRYSGVPSRFSGSGSGTDFTLTISSLQPEDVATYYCQQYNSNPLTFGQGTKLEIKR
# notes: Humanized 77H11, full-length human IgG4 (S228P); also called 77H1(H3L1); 77H1 (H3L1)
# B8: 77H11 (H4L1) (antibody, V domains shown)
# VH: EVQLQESGPGLVKPSQTLSLTCTVSGYSITSDYAWNWIRQPPGNKLEWMGYISYSGRTSYNPSLKSRITISRDTSKNQFSLKLSSVTAADTAVYYCAVLYALDYWGQGTTVTVSS
# VL: DIQMTQSPSSLSASVGDRVTITCKASQNVDTNVAWYQQKPGKVPKALIYSASYRYSGVPSRFSGSGSGTDFTLTISSLQPEDVATYYCQQYNSNPLTFGQGTKLEIK
# B9: 77H11 (H2L2) (antibody, V domains shown)
# VH: EVQLQESGPGLVKPSQTLSLTCTVSGYSITSDYAWNWIRQPPGKGLEWIGYISYSGRTSYNPSLKSRVTISVDTSKNQFSLKLSSVTAADTAVYYCAVLYALDYWGQGTTVTVSS
# VL: DIQMTQSPSSLSASVGDRVTITCKASQNVDTNVAWYQQKPGKSPKALIYSASYRYSGVPSRFSGSGSGTDFTLTISSLQPEDVAEYYCQQYNSNPLTFGQGTKLEIK
# B10: 77H11 (H3L2) (antibody, V domains shown)
# VH: EVQLQESGPGLVKPSQTLSLTCTVSGYSITSDYAWNWIRQPPGKGLEWIGYISYSGRTSYNPSLKSRVTISRDTSKNQFSLKLSSVTAADTAVYYCAVLYALDYWGQGTTVTVSS
# VL: DIQMTQSPSSLSASVGDRVTITCKASQNVDTNVAWYQQKPGKSPKALIYSASYRYSGVPSRFSGSGSGTDFTLTISSLQPEDVAEYYCQQYNSNPLTFGQGTKLEIK
# B11: 77H11 (antibody, V domains shown)
# VH: DVQLQESGPGLVKPSQSLSLTCTVTGYSITSDYAWNWIRQFPGNKLEWMGYISYSGRTSYNPSLKSRISITRDTSKNQFFLQLNSVTTEDTATYYCAVLYALDYWGQGTSVTVSS
# VL: DIVMTQSQKFMSTSVGDRVSVTCKASQNVDTNVAWYQQKPGQSPKALIYSASYRYSGVPDRFTGSGSGTDFTLTISDVQSEDLAEYFCQQYNSNPLTFGSGTKLEIK
# B12: 77H11 (H4L2) (antibody, V domains shown)
# VH: EVQLQESGPGLVKPSQTLSLTCTVSGYSITSDYAWNWIRQPPGNKLEWMGYISYSGRTSYNPSLKSRITISRDTSKNQFSLKLSSVTAADTAVYYCAVLYALDYWGQGTTVTVSS
# VL: DIQMTQSPSSLSASVGDRVTITCKASQNVDTNVAWYQQKPGKSPKALIYSASYRYSGVPSRFSGSGSGTDFTLTISSLQPEDVAEYYCQQYNSNPLTFGQGTKLEIK
# B13: OMS721 (antibody, human IgG4 S228P, lambda, V domains shown)
# VH: QVTLKESGPVLVKPTETLTLTCTVSGFSLSRGKMGVSWIRQPPGKALEWLAHIFSSDEKSYRTSLKSRLTISKDTSKNQVVLTMTNMDPVDTATYYCARIRRGGIDYWGQGTLVTVSS
# VL: QPVLTQPPSLSVSPGQTASITCSGEKLGDKYAYWYQQKPGQSPVLVMYQDKQRPSGIPERFSGSNSGNTATLTISGTQAMDEADYYCQAWDSSTAVFGGGTKLTVLG
# notes: Positive control, synthesized according to WO2012151481A; also called narsoplimab; positive control antibody
# B14: 67D2 (antibody, V domains shown)
# VH: DVQLQESGPGLVKPSQSLSLTCTVTGYSITSDYAWNWIRQFPGNKLEWMGYISYSGRTSYNPSLKSRISITRDTSKNQFFLQLNSVTTEDTATYYCAILYAMNFWGQGTSVTVSS
# VL: DIVMTQSQKFMSTSVGDRVSVTCKASQNVDTNVAWYQQKPGQSPKALIYSASYRFSGVPDRFTGSGSGTDFTLTISNVQSEDLAEYFCQQYNSNPLTFGSGTKLEIK
# B15: 67E8 (antibody, V domains shown)
# VH: DVQLQESGPGLVKPSQSLSLTCTVTGYSITSDYAWNWIRQFPGNKLEWMGYISYSGRTSYNPSLKSRISITRDTSKNQFFLQLNSVTTEDTATYYCAILYAMDYWGQGTSVTVSS
# VL: DIVMTQSQKFMSTSVGDRVSVTCKASQNVDTNVAWYQQKPGQSPKALIYSASYRYSGVPDRFTGSGSGTDFTLTISNVQSEDLAEYFCQQYNSNPLTFGSGTKLEIK
# B16: 29C1 (antibody, V domains shown)
# VH: EVQLVESGGGLVKPGGSLKLSCAASGFTFSRFALSWVRQTPEKRLEWVAAVSRGGDYTYYPDSMKGRFTISRDNAMNTLYLQMSSLSSEDTAMYYCARHLYGYGHYYAMDYWGQGTSVTVSS
# VL: DIVMTQSHKFMSTSVGDRVSITCKASQDVNTAVAWYQQKPGQSPKLLIYSASYRYTGVPDRFTGSGSGTDFTFTISSVQAEDLAVYYCQQHYSTPYTFGGGTKLEIK
# What was measured:
# [1] = target: T1, MASP2 in human serum (human, UniProt O00187 16-686); assay: cell-based or functional assay
# [2] = target: MASP2 in monkey serum (monkey); assay: cell-based or functional assay
# [3] = target: T1, MASP2 in human serum; assay: cell-based or functional assay; remark: listed apart in the source
# [4] = target: T2, Human MASP2A (S633A) protein (human, UniProt O00187 16-686); assay: SPR (Biacore 8K), antibody captured on anti-human Fc chip, antigen as analyte, 1:1 fit
# T2 construct: also called human enzymatic mutant human MASP2A (S633A)
# Description: (§1) The binding properties of the anti-MASP2 antibodies were determined by the method of Biacore. […] An anti-human Fc IgG capture chip was used to capture the antibodies, then antigens with different concentrations were used as a mobile phase for the determination, and finally curve fitting was performed according to a 1:1 mode to obtain affinity values.
# [5] = target: Monkey MASP2A (S633A) protein (monkey, UniProt O00187 16-686 (human entry)); assay: as above
# Description: as §1
# [6] = target: T3, Murine MASP2A (S632A) protein (murine, UniProt Q91WP0 16-685); assay: SPR (Biacore 8K), antibody captured on anti-human Fc chip, antigen as analyte
# Description: as §1
# [7] = target: T1, MASP2 in human serum; assay: cell-based or functional assay; remark: listed apart in the source
# [8] = target: MASP2 in mouse serum (mouse, UniProt Q91WP0 20-685); assay: cell-based or functional assay
# [9] = target: T3, Murine MASP2A (S632A) protein; assay: SPR (Biacore 8K), antibody captured on anti-human Fc chip, antigen as analyte, 1:1 fit
# Description: as §1
# [10] = target: T1, MASP2 in human serum; assay: cell-based or functional assay; remark: listed apart in the source
# T2 sequence (O00187 other isoform, or with tags, fused parts or gaps S633A S633A): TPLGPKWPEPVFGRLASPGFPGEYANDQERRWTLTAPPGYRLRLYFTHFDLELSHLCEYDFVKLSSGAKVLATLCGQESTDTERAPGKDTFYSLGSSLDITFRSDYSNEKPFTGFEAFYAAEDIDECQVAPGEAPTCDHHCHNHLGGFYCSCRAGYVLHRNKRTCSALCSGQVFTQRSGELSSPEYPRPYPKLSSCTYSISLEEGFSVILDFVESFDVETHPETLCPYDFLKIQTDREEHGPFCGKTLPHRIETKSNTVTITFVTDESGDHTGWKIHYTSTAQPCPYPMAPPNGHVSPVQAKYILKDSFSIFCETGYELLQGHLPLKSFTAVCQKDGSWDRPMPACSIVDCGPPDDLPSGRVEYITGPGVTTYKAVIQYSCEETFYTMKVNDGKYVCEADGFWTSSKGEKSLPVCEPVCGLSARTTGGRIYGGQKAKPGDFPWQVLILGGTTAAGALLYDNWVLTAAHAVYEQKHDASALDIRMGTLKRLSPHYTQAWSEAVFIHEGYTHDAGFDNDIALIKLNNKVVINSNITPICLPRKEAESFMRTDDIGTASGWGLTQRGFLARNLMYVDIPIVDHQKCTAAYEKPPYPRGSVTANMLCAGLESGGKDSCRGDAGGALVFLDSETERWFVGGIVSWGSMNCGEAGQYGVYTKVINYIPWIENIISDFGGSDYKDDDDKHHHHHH
# T1 sequence (O00187 16-686 limits assumed): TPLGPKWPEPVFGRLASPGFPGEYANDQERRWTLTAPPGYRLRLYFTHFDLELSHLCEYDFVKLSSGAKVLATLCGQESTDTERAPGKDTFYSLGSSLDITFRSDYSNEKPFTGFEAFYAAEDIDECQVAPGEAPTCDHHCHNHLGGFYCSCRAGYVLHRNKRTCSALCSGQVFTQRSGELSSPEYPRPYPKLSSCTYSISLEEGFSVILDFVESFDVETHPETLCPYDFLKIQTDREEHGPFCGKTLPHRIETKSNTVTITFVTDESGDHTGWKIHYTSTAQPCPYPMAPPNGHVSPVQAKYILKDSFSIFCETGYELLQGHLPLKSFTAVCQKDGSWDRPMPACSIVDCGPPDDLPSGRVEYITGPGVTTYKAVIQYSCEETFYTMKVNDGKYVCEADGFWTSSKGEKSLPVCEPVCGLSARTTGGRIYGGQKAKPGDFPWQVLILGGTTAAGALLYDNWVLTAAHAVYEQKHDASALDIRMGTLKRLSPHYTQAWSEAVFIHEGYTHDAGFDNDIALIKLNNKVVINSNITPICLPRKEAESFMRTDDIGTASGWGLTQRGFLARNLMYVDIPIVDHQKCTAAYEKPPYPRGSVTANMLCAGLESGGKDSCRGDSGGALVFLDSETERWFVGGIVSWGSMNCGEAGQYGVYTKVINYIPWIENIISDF
# T3 sequence (Q91WP0 other isoform, or with tags, fused parts or gaps S632A S632A): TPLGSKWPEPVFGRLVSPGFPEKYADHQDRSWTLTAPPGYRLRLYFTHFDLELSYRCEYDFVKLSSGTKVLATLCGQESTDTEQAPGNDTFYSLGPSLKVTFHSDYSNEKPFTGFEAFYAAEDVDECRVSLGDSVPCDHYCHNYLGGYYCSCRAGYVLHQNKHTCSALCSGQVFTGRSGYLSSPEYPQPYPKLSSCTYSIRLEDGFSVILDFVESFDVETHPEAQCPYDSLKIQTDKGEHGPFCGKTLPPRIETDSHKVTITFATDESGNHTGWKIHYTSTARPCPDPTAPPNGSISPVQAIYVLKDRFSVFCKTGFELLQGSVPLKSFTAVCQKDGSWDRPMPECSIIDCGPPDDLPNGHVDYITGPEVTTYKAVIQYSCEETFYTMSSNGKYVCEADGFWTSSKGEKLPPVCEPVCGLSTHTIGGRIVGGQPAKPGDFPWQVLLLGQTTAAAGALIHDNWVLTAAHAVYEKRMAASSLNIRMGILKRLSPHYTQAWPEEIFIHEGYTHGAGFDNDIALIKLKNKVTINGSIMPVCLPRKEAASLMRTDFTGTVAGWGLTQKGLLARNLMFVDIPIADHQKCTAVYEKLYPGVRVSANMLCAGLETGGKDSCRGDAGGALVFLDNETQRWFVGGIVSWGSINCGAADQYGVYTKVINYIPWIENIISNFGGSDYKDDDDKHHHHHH
# Monkey MASP2A (S633A) protein, sequence (O00187 other isoform, or with tags, fused parts or gaps S633A S633A): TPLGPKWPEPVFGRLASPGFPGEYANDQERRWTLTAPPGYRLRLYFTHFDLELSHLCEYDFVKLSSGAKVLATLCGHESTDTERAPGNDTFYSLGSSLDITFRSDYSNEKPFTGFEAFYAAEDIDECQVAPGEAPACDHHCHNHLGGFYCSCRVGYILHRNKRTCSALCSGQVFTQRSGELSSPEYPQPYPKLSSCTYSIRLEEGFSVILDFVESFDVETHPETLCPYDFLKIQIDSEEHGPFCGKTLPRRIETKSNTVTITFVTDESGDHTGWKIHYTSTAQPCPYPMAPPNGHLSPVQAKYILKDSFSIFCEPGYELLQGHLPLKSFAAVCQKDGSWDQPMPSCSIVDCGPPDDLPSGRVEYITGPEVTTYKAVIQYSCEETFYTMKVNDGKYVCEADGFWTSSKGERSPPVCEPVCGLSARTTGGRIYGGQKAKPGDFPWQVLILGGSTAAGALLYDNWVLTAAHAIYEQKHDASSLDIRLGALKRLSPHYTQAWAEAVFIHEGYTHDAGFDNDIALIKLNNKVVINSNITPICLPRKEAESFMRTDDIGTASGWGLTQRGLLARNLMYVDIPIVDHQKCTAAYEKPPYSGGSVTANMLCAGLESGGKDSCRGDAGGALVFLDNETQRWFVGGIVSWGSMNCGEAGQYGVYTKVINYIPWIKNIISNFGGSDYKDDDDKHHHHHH
# MASP2 in mouse serum, sequence (Q91WP0 20-685 limits assumed): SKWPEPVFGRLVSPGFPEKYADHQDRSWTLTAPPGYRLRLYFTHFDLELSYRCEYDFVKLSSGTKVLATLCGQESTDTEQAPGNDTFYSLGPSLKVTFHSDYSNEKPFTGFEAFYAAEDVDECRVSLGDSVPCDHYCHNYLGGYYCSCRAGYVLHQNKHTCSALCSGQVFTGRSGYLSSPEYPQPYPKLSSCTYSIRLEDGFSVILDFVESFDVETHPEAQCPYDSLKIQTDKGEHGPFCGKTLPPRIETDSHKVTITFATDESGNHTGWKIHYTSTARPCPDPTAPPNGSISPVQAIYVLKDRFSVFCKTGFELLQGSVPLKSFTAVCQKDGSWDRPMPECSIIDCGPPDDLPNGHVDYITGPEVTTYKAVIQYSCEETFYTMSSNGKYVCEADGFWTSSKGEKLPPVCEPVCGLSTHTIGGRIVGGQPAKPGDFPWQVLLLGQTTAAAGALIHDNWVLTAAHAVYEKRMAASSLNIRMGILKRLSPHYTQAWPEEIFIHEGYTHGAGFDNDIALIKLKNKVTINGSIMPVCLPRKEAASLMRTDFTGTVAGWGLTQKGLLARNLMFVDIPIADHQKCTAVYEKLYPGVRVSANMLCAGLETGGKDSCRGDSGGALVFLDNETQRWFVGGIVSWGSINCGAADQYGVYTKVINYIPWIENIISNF
binder,measurement,setting,value
B1,"90% human serum IC50 (µg/mL), inhibition of the lectin pathway (C4c deposition on mannan)",[1],1.18 µg/mL
same,"90% monkey serum IC50 (µg/mL), inhibition of the lectin pathway (C4c deposition on mannan)",[2],15.3 µg/mL
same,"IC50 (µg/mL), inhibition of the lectin pathway in 90% human serum (C4c deposition on mannan)",[3],0.477 µg/mL
same,Kd,[4],0.0716 nM
same,koff,[4],2.94e-05 s⁻¹
same,kon,[4],410000 M⁻¹ s⁻¹
same,Kd,[5],0.193 nM
same,koff,[5],6.83e-05 s⁻¹
same,kon,[5],354000 M⁻¹ s⁻¹
same,binding result,[6],no binding
B2,"IC50 (µg/mL), inhibition of the lectin pathway in 90% human serum (C4c deposition on mannan)",[3],0.471 µg/mL
B3,"IC50 (µg/mL), inhibition of the lectin pathway in 90% human serum (C4c deposition on mannan)",[3],0.526 µg/mL
B4,"IC50 (µg/mL), inhibition of the lectin pathway in 90% human serum (C4c deposition on mannan)",[3],0.534 µg/mL
B5,"IC50 (µg/mL), inhibition of the lectin pathway in 90% human serum (C4c deposition on mannan)",[3],0.555 µg/mL
B6,"IC50 (µg/mL), inhibition of the lectin pathway in 90% human serum (C4c deposition on mannan)",[3],0.515 µg/mL
B7,"90% human serum IC50 (µg/mL), inhibition of the lectin pathway (C4c deposition on mannan)",[1],0.97 µg/mL
same,"90% monkey serum IC50 (µg/mL), inhibition of the lectin pathway (C4c deposition on mannan)",[2],21.6 µg/mL
same,"IC50 (µg/mL), inhibition of the lectin pathway in 90% human serum (C4c deposition on mannan)",[3],0.624 µg/mL
same,Kd,[5],0.14 nM
same,koff,[5],8.63e-05 s⁻¹
same,kon,[5],616000 M⁻¹ s⁻¹
same,binding result,[6],no binding
B8,"IC50 (µg/mL), inhibition of the lectin pathway in 90% human serum (C4c deposition on mannan)",[3],0.67 µg/mL
B9,"IC50 (µg/mL), inhibition of the lectin pathway in 90% human serum (C4c deposition on mannan)",[3],1.58 µg/mL
B10,"IC50 (µg/mL), inhibition of the lectin pathway in 90% human serum (C4c deposition on mannan)",[3],0.454 µg/mL
B11,"IC50 (µg/mL), inhibition of the lectin pathway in 1% human serum (C4c deposition on mannan)",[7],0.63 µg/mL
B12,"IC50 (µg/mL), inhibition of the lectin pathway in 90% human serum (C4c deposition on mannan)",[3],0.443 µg/mL
B13,"90% mouse serum IC50 (µg/mL), inhibition of the lectin pathway (C4c deposition on mannan)",[8],3.74 µg/mL
same,"90% monkey serum IC50 (µg/mL), inhibition of the lectin pathway (C4c deposition on mannan)",[2],26.6 µg/mL
same,Kd,[9],0.233 nM
B14,"IC50 (µg/mL), inhibition of the lectin pathway in 1% human serum (C4c deposition on mannan)",[7],0.559 µg/mL
B15,"IC50 (µg/mL), inhibition of the lectin pathway in 1% human serum (C4c deposition on mannan)",[7],0.738 µg/mL
B16,"IC50 (µg/mL), inhibition of the lectin pathway in 1% human serum (C4c deposition on mannan)",[10],0.086 µg/mL
